Measurements taken from US20240192215A1 (E AND S HEALTHCARE, published 2024).

Assays:
Peptide_004 = molecular target: T1, Peptide_004 (human); experiment: peptide microarray, head 0.08 ug (text 0.008 ug/mL)
T1 construct: 15-mer on microarray; not native form, recombinant insert region
T1 peptide: AADVHSQHHHHHHHH
Protocol: (§1) 5, 1, 0.2, 0.04, 0.008 and 0.0016 μg/mL serial dilutions were incubated on a single multi-well microarray slide at 30° C. for 1 hour. The slide includes 21 individual mini-arrays (one mini-array per sample dilution).
(§2) DyLight 650 was used as a label. False-positive binding to a peptide was evaluated by performing one additional control incubation in which only a secondary antibody was applied on the same microarray slide. Before performing each step, the microarrays were washed with a washing buffer.

Peptide_005 = molecular target: T2, Peptide_005 (human); experiment: as above
T2 construct: 15-mer on microarray; not native form, recombinant insert region
T2 peptide: ADVHSQHHHHHHHHV
Protocol: as §1, §2

Peptide_045 [1] = molecular target: T3, Peptide_045 (human); experiment: peptide microarray, 5 ug/mL
T3 construct: 15-mer of hTrx1 on microarray
T3 peptide: SATWCGPCKMIKPFF
Protocol: as §1, §2

Peptide_015 [2] = molecular target: T4, Peptide_015 (human); experiment: peptide microarray, 0.0016 ug/mL
T4 construct: 15-mer on microarray; not native form, includes recombinant insert region
T4 peptide: HHHHVKQIESKTAFQ

Peptide_084 [3] = molecular target: T5, Peptide_084 (human); experiment: peptide microarray, 0.0016 ug/mL
T5 construct: 15-mer of hTrx1 on microarray
T5 peptide: SECEVKCMPTFQFFK

Peptide_092 [4] = molecular target: T6, Peptide_092 (human); experiment: peptide microarray, 0.0016 ug/mL
T6 construct: 15-mer of hTrx1 on microarray
T6 peptide: PTFQFFKKGQKVGEF

Peptide_094 [5] = molecular target: T7, Peptide_094 (human); experiment: peptide microarray, 0.0016 ug/mL
T7 construct: 15-mer of hTrx1 on microarray
T7 peptide: FQFFKKGQKVGEFSG

Peptide_012 = molecular target: T8, Peptide_012 (human); experiment: peptide microarray, head 0.08 ug (text 0.008 ug/mL)
T8 construct: 15-mer on microarray; not native form, includes recombinant insert region
T8 peptide: HHHHHHHVKQIESKT
Protocol: as §1, §2

Peptide_013 = molecular target: T9, Peptide_013 (human); experiment: as above
T9 construct: 15-mer on microarray; not native form, includes recombinant insert region
T9 peptide: HHHHHHVKQIESKTA
Protocol: as §1, §2

Peptide_014 = molecular target: T10, Peptide_014 (human); experiment: as above
T10 construct: 15-mer on microarray; not native form, includes recombinant insert region
T10 peptide: HHHHHVKQIESKTAF
Protocol: as §1, §2

Peptide_015 [6] = molecular target: T4, Peptide_015; experiment: as above
Protocol: as §1, §2

Peptide_018 = molecular target: T11, Peptide_018 (human); experiment: as above
T11 construct: 15-mer on microarray; not native form, includes recombinant insert region; also called HVKQIESKTAFQEAL
T11 peptide: HVKQIESKTAFQEAL
Protocol: as §1, §2

Peptide_019 = molecular target: T12, Peptide_019 (human); experiment: as above
T12 construct: 15-mer of hTrx1 on microarray
T12 peptide: VKQIESKTAFQEALD
Protocol: as §1, §2

Peptide_020 = molecular target: T13, Peptide_020 (human); experiment: as above
T13 construct: 15-mer of hTrx1 on microarray
T13 peptide: KQIESKTAFQEALDA
Protocol: as §1, §2

Peptide_021 = molecular target: T14, Peptide_021 (human); experiment: as above
T14 construct: 15-mer of hTrx1 on microarray
T14 peptide: QIESKTAFQEALDAA
Protocol: as §1, §2

Peptide_022 = molecular target: T15, Peptide_022 (human); experiment: as above
T15 construct: 15-mer of hTrx1 on microarray
T15 peptide: IESKTAFQEALDAAG
Protocol: as §1, §2

Peptide_023 = molecular target: T16, Peptide_023 (human); experiment: as above
T16 construct: 15-mer of hTrx1 on microarray
T16 peptide: ESKTAFQEALDAAGD
Protocol: as §1, §2

Peptide_024 = molecular target: T17, Peptide_024 (human); experiment: as above
T17 construct: 15-mer of hTrx1 on microarray
T17 peptide: SKTAFQEALDAAGDK
Protocol: as §1, §2

Peptide_025 = molecular target: T18, Peptide_025 (human); experiment: as above
T18 construct: 15-mer of hTrx1 on microarray
T18 peptide: KTAFQEALDAAGDKL
Protocol: as §1, §2

Peptide_045 [7] = molecular target: T3, Peptide_045; experiment: as above
Protocol: as §1, §2

Peptide_051 = molecular target: T19, Peptide_051 (human); experiment: as above
T19 construct: 15-mer of hTrx1 on microarray
T19 peptide: PCKMIKPFFHSLSEK
Protocol: as §1, §2

Peptide_084 [8] = molecular target: T5, Peptide_084; experiment: as above
Protocol: as §1, §2

Peptide_085 = molecular target: T20, Peptide_085 (human); experiment: as above
T20 construct: 15-mer of hTrx1 on microarray
T20 peptide: ECEVKCMPTFQFFKK
Protocol: as §1, §2

Peptide_086 = molecular target: T21, Peptide_086 (human); experiment: as above
T21 construct: 15-mer of hTrx1 on microarray
T21 peptide: CEVKCMPTFQFFKKG
Protocol: as §1, §2

Peptide_092 [9] = molecular target: T6, Peptide_092; experiment: as above
Protocol: as §1, §2

Peptide_093 = molecular target: T22, Peptide_093 (human); experiment: as above
T22 construct: 15-mer of hTrx1 on microarray
T22 peptide: TFQFFKKGQKVGEFS
Protocol: as §1, §2

Peptide_094 [10] = molecular target: T7, Peptide_094; experiment: as above
Protocol: as §1, §2

Peptide_095 = molecular target: T23, Peptide_095 (human); experiment: as above
T23 construct: 15-mer of hTrx1 on microarray
T23 peptide: QFFKKGQKVGEFSGA
Protocol: as §1, §2

[11] = molecular target: T24, human thioredoxin-1 (Trx1) (human, UniProt P10599 1-105); experiment: one site - total fit (Prism) of the ELISA of panel (a); the cell has no unit, the concentrations of panel (a) are in nM; paragraph 183 prints it rounded as 1.3x10^-10 [b]
T24 construct: also called hTrx1; hTRX1
T24 sequence (looked up): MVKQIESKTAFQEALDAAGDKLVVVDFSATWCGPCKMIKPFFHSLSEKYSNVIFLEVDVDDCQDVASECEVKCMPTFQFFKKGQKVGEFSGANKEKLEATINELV
Protocol: 100 μl of a coating buffer and 100 ng of Trx1 were mixed and dispensed to each well, and then reacted at 4° C. for 16 hours or more. After the reaction solution was removed, 200 μl of PBSA was dispensed to each well and reacted at 37° C. for 120 minutes. […] After the reaction solution was removed, washing was performed by dispensing 200 μl of a washing buffer to each well. The above-described process was performed two times.
After the reaction solution was removed, washing was performed by dispensing 200 μl of a washing buffer to each well. The above-described process was performed three times.

B1: monoclonal antibody B266-1 (antibody, human IgG1)
light: QIVLTQSPAIMSASPGEKVTMTCSASSRISYMYWYQQKPGTSPKRWIYDTSKLASGVPARFSGSGSGTSYSLTISTMEAEDAATYYCHQRSSYPTFGAGTKLELKSVAAPSVFIFPPSDEQLKSGTASVVCLLNNFYPREAKVQWKVDNALQSGNSQESVTEQDSKDSTYSLSSTLTLSKADYEKHKVYACEVTHQGLSSPVTKSFNRGEC
heavy: not shown
notes: B266 with the Fc part changed to human IgG1; also called B266-1 (Trx1-hIgG1); B266-1 (hTrx1-hIgG1)
- signal (blank-control = 1) (Peptide_004): 1
- signal (blank-control = 1) (Peptide_005): 1.28

B2: monoclonal antibody B264 (antibody, mouse IgG1, kappa, V domains shown)
VH: QVQLQQSGAELARPGASVKMSCKASGYTFTSYTMHWVKQRPGQGLEWIGYINPTSDYTNYNQKFKDKATLTADKSSSTAYMQLSSLTSEDSAVYFCASEGGFLYYFDYWGQGTTLTVSS
VL: DVLMTQTPLSLPVSLGDQASISCRSSQSIVHSNGNTYLEWYLQKPGQSPKLLIYKVSNRFSGVPDRFSGSGSGTDFTLKISRVEAEDLGVYYCFQGSHVPYTFGGGTKLEIKR
notes: also called AB264; B264 (Trx1-mIgG1)
- signal (blank-control = 1) (Peptide_045 [1]): 4.9
- signal (blank-control = 1) (Peptide_015 [2]): 0.58
- signal (blank-control = 1) (Peptide_084 [3]): 0.97
- signal (blank-control = 1) (Peptide_092 [4]): 1.86
- signal (blank-control = 1) (Peptide_094 [5]): 0.62
- signal (blank-control = 1) (Peptide_012): 0.88
- signal (blank-control = 1) (Peptide_013): 0.95
- signal (blank-control = 1) (Peptide_014): 1.14
- signal (blank-control = 1) (Peptide_015 [6]): 0.79
- signal (blank-control = 1) (Peptide_018): 0.85
- signal (blank-control = 1) (Peptide_019): 1.02
- signal (blank-control = 1) (Peptide_020): 0.8
- signal (blank-control = 1) (Peptide_021): 0.84
- signal (blank-control = 1) (Peptide_022): 1
- signal (blank-control = 1) (Peptide_023): 0.91
- signal (blank-control = 1) (Peptide_024): 1
- signal (blank-control = 1) (Peptide_025): 1.03
- signal (blank-control = 1) (Peptide_045 [7]): 5.89
- signal (blank-control = 1) (Peptide_051): 0.7
- signal (blank-control = 1) (Peptide_084 [8]): 1.33
- signal (blank-control = 1) (Peptide_085): 0.9
- signal (blank-control = 1) (Peptide_086): 1.02
- signal (blank-control = 1) (Peptide_092 [9]): 3.07
- signal (blank-control = 1) (Peptide_093): 1.53
- signal (blank-control = 1) (Peptide_094 [10]): 1
- signal (blank-control = 1) (Peptide_095): 1.15
- Kd [11]: 0.133 nM
